Measured values from patent US20250304667A1 (ALLERGAN, published 2025).
Residue numbers refer to the chain shown, from its start. Where two headings read alike, the source gives them in different places.

Columns and labels:
[1] = target: Soluble C5b-9 (CompTech, A127) (UniProt P01031); test: BLI (Octet), antibody amine-coupled to AR2G tips, soluble C5b-9 at 30 ug/ml, 300 s association (Example 8)
[2] = target: Soluble C5b-9 (CompTech, A127) (UniProt P01031); test: as above; remark: listed apart in the source
[3] = target: insoluble C5b-9 complex deposited on IgM-coated ELISA plates after complement activation of normal human serum (human) (UniProt P01031); test: ELISA on C5b-9 deposited on IgM-coated plates from 2% normal human serum, anti-mouse HRP, Abs 450nm (Example 7)
[4] = target: T1, human complement Component 5 (C5) (human, UniProt P01031 19-1676, limits assumed); test: cell-based or functional assay
T1 sequence (P01031 19-1676 limits assumed): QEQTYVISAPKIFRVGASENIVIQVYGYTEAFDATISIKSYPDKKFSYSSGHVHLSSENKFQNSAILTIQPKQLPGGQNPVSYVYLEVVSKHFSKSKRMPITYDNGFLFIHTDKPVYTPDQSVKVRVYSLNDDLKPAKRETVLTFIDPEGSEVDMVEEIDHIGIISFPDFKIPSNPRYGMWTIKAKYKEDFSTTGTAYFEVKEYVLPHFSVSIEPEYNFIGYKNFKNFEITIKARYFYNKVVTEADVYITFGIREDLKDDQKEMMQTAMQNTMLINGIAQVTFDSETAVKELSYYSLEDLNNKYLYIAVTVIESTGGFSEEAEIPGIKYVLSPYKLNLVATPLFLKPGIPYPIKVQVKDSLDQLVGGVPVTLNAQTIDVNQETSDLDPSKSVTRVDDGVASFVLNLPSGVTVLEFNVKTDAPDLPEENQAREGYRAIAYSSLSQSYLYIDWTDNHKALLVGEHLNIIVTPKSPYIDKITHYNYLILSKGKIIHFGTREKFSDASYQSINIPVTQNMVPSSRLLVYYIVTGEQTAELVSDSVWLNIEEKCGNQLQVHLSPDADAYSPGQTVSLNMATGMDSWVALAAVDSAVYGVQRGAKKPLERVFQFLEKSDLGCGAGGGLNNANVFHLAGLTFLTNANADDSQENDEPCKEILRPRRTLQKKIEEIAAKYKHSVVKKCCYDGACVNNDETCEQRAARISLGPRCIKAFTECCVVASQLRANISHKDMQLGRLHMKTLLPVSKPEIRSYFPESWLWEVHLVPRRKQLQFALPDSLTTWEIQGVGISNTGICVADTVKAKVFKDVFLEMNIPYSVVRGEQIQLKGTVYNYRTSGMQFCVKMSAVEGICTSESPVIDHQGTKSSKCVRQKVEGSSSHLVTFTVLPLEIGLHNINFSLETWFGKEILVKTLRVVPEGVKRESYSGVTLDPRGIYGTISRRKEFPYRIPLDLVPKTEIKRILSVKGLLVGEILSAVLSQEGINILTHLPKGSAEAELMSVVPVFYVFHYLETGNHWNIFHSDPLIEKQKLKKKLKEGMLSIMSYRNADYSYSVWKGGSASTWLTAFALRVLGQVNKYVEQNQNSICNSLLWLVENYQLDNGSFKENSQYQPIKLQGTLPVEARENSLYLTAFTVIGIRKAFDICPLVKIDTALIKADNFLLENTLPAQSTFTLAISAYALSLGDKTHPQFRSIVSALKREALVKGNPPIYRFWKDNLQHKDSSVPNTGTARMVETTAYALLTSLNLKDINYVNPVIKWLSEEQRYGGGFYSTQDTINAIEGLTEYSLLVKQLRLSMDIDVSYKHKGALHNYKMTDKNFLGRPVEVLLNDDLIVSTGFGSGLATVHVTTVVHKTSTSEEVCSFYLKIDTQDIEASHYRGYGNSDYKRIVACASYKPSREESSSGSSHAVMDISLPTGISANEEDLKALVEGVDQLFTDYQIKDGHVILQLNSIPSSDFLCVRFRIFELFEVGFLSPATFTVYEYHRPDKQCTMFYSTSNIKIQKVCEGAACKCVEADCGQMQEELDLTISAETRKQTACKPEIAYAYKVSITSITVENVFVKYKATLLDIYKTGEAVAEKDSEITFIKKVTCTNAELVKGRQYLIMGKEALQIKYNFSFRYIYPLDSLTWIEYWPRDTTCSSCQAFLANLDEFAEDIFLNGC

[5] = target: T1, human complement Component 5 (C5); test: cell-based or functional assay; remark: listed apart in the source
[6] = target: T1, human complement Component 5 (C5); test: cell-based or functional assay; remark: listed apart in the source
[7] = target: T1, human complement Component 5 (C5); test: cell-based or functional assay; remark: listed apart in the source
[8] = target: T1, human complement Component 5 (C5); test: cell-based or functional assay; remark: listed apart in the source
[9] = target: T1, human complement Component 5 (C5); test: cell-based or functional assay; remark: listed apart in the source

For “anti-C5b-9 mouse monoclonal antibody (Quidel A239)”, the Displacement @ 300s. [1] was 0.67 nm, the Displacement @ 300s. [2] was 0.86 nm and the EC50 (read off the curve) [3] was 0.04 µg/mL.

B1: H1L3-IgG (antibody, V domains shown)
VH: QVQLVQSGAEVKKPGASVKVSCKASGYTFTDEYMNWVRQAPGQSLEWMGYINPNNGGADYNQKFQGRVTMTVDQSISTAYMELSRLRSDDTAVYFCARLGYSNPYFDFWGQGTLVTVSS
VL: DIVLTQSPSFLSASVGDRVTITCQASQDVNTAVAWYLQKPGKSPKLLIYWASTRHTGVPARFTGSGSGTDYTLTISSLQPEDFAVYFCQQHHVSPWTFGGGTKVEIK
B1 was tested, and the “IC50 (read off the curve), OD (450nM)” value [4] was ~0.5 µg/mL and the “IC50 (read off the curve), % Inhibition” value [5] was ~3 µg/mL.

B2: H3L2-IgG (antibody, V domains shown)
VH: B1 VH with Q62P, K63S, F64L, Q65K, G66S, M70I, T71S
VL: DIVLTQSPATLSLSPGERATLSCRASQDVNTAVAWYQQKPDQSPKLLIYWASTRHTGVPARFTGSGSGTDYTLTISSLQPEDFAVYFCQQHHVSPWTFGGGTKVEIK
In the case of B2, the “IC50 (read off the curve), OD (450nM)” value [6] is reported as ~0.8 µg/mL.

B3: H2L2-Fab (Fab, V domains shown)
VH: B1 VH with Q1E, Q43K, M48V, M70I, I76A, R85S, D89E
VL: B2 VL
With B3 the “IC50 (read off the curve), OD (450nM)” value [7] was ~0.5 µg/mL.

B4: H2L1-Fab (Fab, V domains shown)
VH: B1 VH with Q1E, Q43K, M48V, M70I, I76A, R85S, D89E
VL: B2 VL with A9D, T10S, S12A, L13V, P15L, L21I, S22N, R24K, P80A, F83V
For B4, the “IC50 (read off the curve), % Inhibition” value [8] was ~2 µg/mL and the “IC50 (read off the curve), OD (450nM)” value [7] was ~0.5 µg/mL.

B5: H3L2-Fab (Fab, V domains shown)
VH: B1 VH with Q62P, K63S, F64L, Q65K, G66S, M70I, T71S
VL: B2 VL
B5 was tested, and the “IC50 (read off the curve), OD (450nM)” value [7] was ~0.5 µg/mL.

B6: H5L2-Fab (Fab, V domains shown)
VH: B1 VH with V5K, Q43K
VL: B2 VL
In the case of B6, the “IC50 (read off the curve), % Inhibition” value [8] is reported as ~2 µg/mL and the “IC50 (read off the curve), OD (450nM)” value [7] is reported as ~0.4 µg/mL.

B7: H5L3-IgG (antibody, V domains shown)
VH: B1 VH with V5K, Q43K
VL: B1 VL
For B7, the “IC50 (read off the curve), % Inhibition” value [5] was ~3 µg/mL.

B8: H3L4-IgG (antibody, V domains shown)
VH: B1 VH with Q62P, K63S, F64L, Q65K, G66S, M70I, T71S
VL: B2 VL with D41G, Q42K
B8 was tested, and the “IC50 (read off the curve), OD (450nM)” value [4] was ~0.8 µg/mL.

B9: H3L3-IgG (antibody, V domains shown)
VH: B1 VH with Q62P, K63S, F64L, Q65K, G66S, M70I, T71S
VL: B1 VL
For B9, the “IC50 (read off the curve), OD (450nM)” value [4] was ~0.8 µg/mL.

B10: H3L1-IgG (antibody, V domains shown)
VH: B1 VH with Q62P, K63S, F64L, Q65K, G66S, M70I, T71S
VL: B2 VL with A9D, T10S, S12A, L13V, P15L, L21I, S22N, R24K, P80A, F83V
With B10 the “IC50 (read off the curve), OD (450nM)” value [6] was ~0.7 µg/mL.

B11: H1L3-Fab (Fab, V domains shown)
VH: B1 VH
VL: B1 VL
In the case of B11, the “IC50 (read off the curve), % Inhibition” value [8] is reported as ~2 µg/mL.

B12: H1L1-Fab (Fab, V domains shown)
VH: B1 VH
VL: B2 VL with A9D, T10S, S12A, L13V, P15L, L21I, S22N, R24K, P80A, F83V
In the case of B12, the “IC50 (read off the curve), % Inhibition” value [8] is reported as ~2 µg/mL and the “IC50 (read off the curve), OD (450nM)” value [7] is reported as ~0.3 µg/mL.

B13: H2L1-IgG (antibody, V domains shown)
VH: B1 VH with Q1E, Q43K, M48V, M70I, I76A, R85S, D89E
VL: B2 VL with A9D, T10S, S12A, L13V, P15L, L21I, S22N, R24K, P80A, F83V
With B13 the “IC50 (read off the curve), % Inhibition” value [5] was ~3 µg/mL.

B14: H5L4-Fab (Fab, V domains shown)
VH: B1 VH with V5K, Q43K
VL: B2 VL with D41G, Q42K
In the case of B14, the “IC50 (read off the curve), % Inhibition” value [8] is reported as ~2 µg/mL and the “IC50 (read off the curve), OD (450nM)” value [9] is reported as ~0.4 µg/mL.

B15: H5L4-IgG (antibody, V domains shown)
VH: B1 VH with V5K, Q43K
VL: B2 VL with D41G, Q42K
B15 was tested, and the “IC50 (read off the curve), OD (450nM)” value [4] was ~0.5 µg/mL and the “IC50 (read off the curve), % Inhibition” value [5] was ~3 µg/mL.

B16: H1L2-Fab (Fab, V domains shown)
VH: B1 VH
VL: B2 VL
With B16 the “IC50 (read off the curve), % Inhibition” value [8] was ~2 µg/mL and the “IC50 (read off the curve), OD (450nM)” value [7] was ~0.4 µg/mL.

B17: H5L1-Fab (Fab, V domains shown)
VH: B1 VH with V5K, Q43K
VL: B2 VL with A9D, T10S, S12A, L13V, P15L, L21I, S22N, R24K, P80A, F83V
For B17, the “IC50 (read off the curve), % Inhibition” value [8] was ~2 µg/mL.

B18: H1L2-IgG (antibody, V domains shown)
VH: B1 VH
VL: B2 VL
B18 was tested, and the “IC50 (read off the curve), % Inhibition” value [5] was ~3 µg/mL.

B19: H3L1-Fab (Fab, V domains shown)
VH: B1 VH with Q62P, K63S, F64L, Q65K, G66S, M70I, T71S
VL: B2 VL with A9D, T10S, S12A, L13V, P15L, L21I, S22N, R24K, P80A, F83V
B19 was tested, and the “IC50 (read off the curve), OD (450nM)” value [7] was ~0.5 µg/mL.

B20: H1L4-IgG (antibody, V domains shown)
VH: B1 VH
VL: B2 VL with D41G, Q42K
In the case of B20, the “IC50 (read off the curve), OD (450nM)” value [4] is reported as ~0.5 µg/mL and the “IC50 (read off the curve), % Inhibition” value [5] is reported as ~3 µg/mL.

B21: H2L2-IgG (antibody, V domains shown)
VH: B1 VH with Q1E, Q43K, M48V, M70I, I76A, R85S, D89E
VL: B2 VL
For B21, the “IC50 (read off the curve), OD (450nM)” value [6] was ~0.7 µg/mL.

B22: H3L3-Fab (Fab, V domains shown)
VH: B1 VH with Q62P, K63S, F64L, Q65K, G66S, M70I, T71S
VL: B1 VL
With B22 the “IC50 (read off the curve), OD (450nM)” value [9] was ~0.5 µg/mL.

B23: H1L1-IgG (antibody, V domains shown)
VH: B1 VH
VL: B2 VL with A9D, T10S, S12A, L13V, P15L, L21I, S22N, R24K, P80A, F83V
In the case of B23, the “IC50 (read off the curve), % Inhibition” value [5] is reported as ~3 µg/mL.

B24: H5L2-IgG (antibody, V domains shown)
VH: B1 VH with V5K, Q43K
VL: B2 VL
In the case of B24, the “IC50 (read off the curve), % Inhibition” value [5] is reported as ~3 µg/mL and the “IC50 (read off the curve), OD (450nM)” value [6] is reported as ~0.7 µg/mL.

B25: H5L1-IgG (antibody, V domains shown)
VH: B1 VH with V5K, Q43K
VL: B2 VL with A9D, T10S, S12A, L13V, P15L, L21I, S22N, R24K, P80A, F83V
For B25, the “IC50 (read off the curve), % Inhibition” value [5] was ~2 µg/mL and the “IC50 (read off the curve), OD (450nM)” value [6] was ~0.5 µg/mL.

B26: H5L3-Fab (Fab, V domains shown)
VH: B1 VH with V5K, Q43K
VL: B1 VL
B26 was tested, and the “IC50 (read off the curve), % Inhibition” value [8] was ~2 µg/mL and the “IC50 (read off the curve), OD (450nM)” value [9] was ~0.4 µg/mL.

B27: H1L4-Fab (Fab, V domains shown)
VH: B1 VH
VL: B2 VL with D41G, Q42K
B27 was tested, and the “IC50 (read off the curve), % Inhibition” value [8] was ~2 µg/mL and the “IC50 (read off the curve), OD (450nM)” value [9] was ~0.4 µg/mL.
